B1: LINE1-full (parent)
chain: UACGUAGGUGGUUUUCCCCUGAUAGUGCUAAGGGGGCCUGGAAGUUUGGACUGGGCAGAGCUCAACACAGCGUGGCAAAGUGGCUGUGGCUAGACUGCCUCUCUGGAUUCCUCGUCACUCAGCAGGGCAUCUCUGAGAGAAAUGCC

The variants in the data set derive from B1. As to the kind of experiment: self-cleavage, relative activity (ratio to wild type); higher = more cleavage; in vitro, sequencing; the parent is a self-cleaving ribozyme.
For U13A G114A, the self-cleavage turned out to be 1.03.
Then U13C C68U, with 0.17; and U14C G60A, with 0.11.
As to U13C U52C, the self-cleavage is 1.06.
For U13C U52A the value was 1.44; for U13G U119A, 1.8.
For U13A U143C the value was 1.51; for U13C C118U, 0.99; for U14C A142C, 1.87.
For U13G U100C the value was 1.17; for U14C A22G, 0.99; for U14C A24U, 1.07.
Turning to U14C A24G, the self-cleavage is 0.81.
Then U14C C28A, with 0.74; and U14C C28U, with 0.8; and U13G A141G, with 0.94.
With U13C G82A, the self-cleavage was 0.72.
For U14C G36C the value was 1.41; for U13C G34U, 1.99; for U13G U115C, 1.39.
As for U13A U109A, the self-cleavage is 0.28.
For U13C A94C the value was 0.11.
As for U13C A94U, the self-cleavage came to 0.42.
Turning to U14A A138U, the self-cleavage was determined as 1.07.
Take U14A G55U: the self-cleavage was found to be 0.28.
Turning to U13A U104A, the self-cleavage stood at 0.94.
As for U13A U104C, the self-cleavage stood at 1.51.
Turning to U13C G139A, the self-cleavage came out at 0.92.
Then U13A G60C, with 0; and U13C A22G, with 1.11.
Then U13A G54U, with 0.51; and U13C A50G, with 0.63; and U13A U39C, with 0.61.
As to U13G U96C, the self-cleavage is 0.14.
Then U14C A136G, with 1.45; and U14C A136U, with 1.42.
For U14C A136C the value was 1.36; for U13C C37G, 1.03.
Then U13C C37U, with 1.33; and U13C G48U, with 0.91; and U13A U15A, with 0.59.
In the case of U13A U45C, the self-cleavage came to 1.01.
Then U14C G27A, with 1.15; and U14C A94U, with 0.29; and U14A C99G, with 0.63.
Then U14C A64G, with 0.33; and U13C G125U, with 1.4; and U14C A138C, with 1.56.
As for U14C A138G, the self-cleavage was determined as 1.23.
For U14C A138U the value was 0.98.
Regarding U13G A59G, the self-cleavage came out at 0.12.
Then U13G U47A, with 0.86; and U14A C63U, with 0.09.
Then U14A C51U, with 0.97; and U13C G58C, with 0.08.
As for U14C A124U, the self-cleavage was 1.25.
Then U14C A124G, with 1.09; and U14C G49U, with 1.21; and U13G U15C, with 1.47.
Then U14C G105C, with 1.84; and U14C G33A, with 1.02; and U14C G33U, with 1.14.
As for U13C G27A, the self-cleavage was 0.85.
Then U13C U85C, with 0.18.
For U13C U85G, the self-cleavage was 0.29.
For the variant U13A U119A, the self-cleavage came out at 1.06.
For the variant U14C G40A, the self-cleavage worked out at 0.85.
For U14C G40U the value was 1.06; for U14A U15C, 1.02; for U13C A42U, 0.88.
U13C A42G: the self-cleavage came to 1.19.
With U13G C145U, the self-cleavage was found to be 1.16.
Consider U13G U108G, for which the self-cleavage came to 1.2.
For U13G U108C the value was 1.31; for U13C A69G, 0.5.
Then U14A U96G, with 0.
In the case of U14C A50G, the self-cleavage came out at 1.08.
As to U14A A50U, the self-cleavage came to 0.18.
On to U13C A31C, for which the self-cleavage amounted to 0.97.
For U13C A31G the value was 0.84; for U14C A140U, 1.22.
For U14C A140G the value was 0.87; for U13C U20A, 1.07; for U13G U46C, 1.33.
Turning to U13A G126A, the self-cleavage was 1.08.
Then U13C A67U, with 0.16; and U13G A138G, with 1.45.
U14A G144A: the self-cleavage amounted to 1.12.
Then U14A A121G, with 0.94; and U14A A121C, with 1.07.
Then U13C G55U, with 0.22; and U13C G55A, with 0.23.
U13C C56U: the self-cleavage stood at 0.15.
On to U14C G48U, for which the self-cleavage was determined as 1.15.
For U14A C131U the value was 0.21; for U13C U45A, 0.76; for U13C U45C, 1.16.
For U13C A64G, the self-cleavage is 0.35.
Regarding U14C A129G, the self-cleavage was 1.02.
For U14C C66U, the self-cleavage was 0.03.
For U13C G32A the value was 0.99; for U13C G32U, 1.2.
Then U13C G32C, with 0.7; and U13G C113A, with 1.43.
As for U14A C111A, the self-cleavage was found to be 0.72.
Turning to U14A A77C, the self-cleavage came out at 0.88.
U13C U104A: the self-cleavage was found to be 1.18.
Then U13C U104C, with 1.28.
Then U13C U15A, with 0.79; and U13C U15G, with 0.75.
For U14A G137A, the self-cleavage worked out at 0.77.
Then U14A U62C, with 0.1; and U14A U62G, with 0.53.
For U14A G36U the value was 1.12; for U14C G35A, 1.22; for U14C G35C, 1.46.
Turning to U14C G35U, the self-cleavage is 1.02.
Then U14C A77U, with 1.19; and U13A U87A, with 0.07; and U13A U87C, with 0.16.
Then U13C G35C, with 1.24; and U13C G35U, with 0.75.
As for U13C A124U, the self-cleavage was 1.28.
Then U13C A124C, with 1.67; and U13C U108A, with 0.91; and U13C U108C, with 1.37.
For U13C C28U, the self-cleavage worked out at 0.64.
On to U14A U26C, for which the self-cleavage was found to be 1.95.
On to U13C A141C, for which the self-cleavage worked out at 1.59.
As to U13C A141G, the self-cleavage came out at 1.18.
For U13C A141U the value was 1.57.
Then U13G A69G, with 0.67.
Then U13G A31G, with 0.39; and U14C A59G, with 0.14; and U13C U143G, with 2.3.
For U13C U143C, the self-cleavage is 1.06.
With U13A U96A, the self-cleavage stood at 0.05.
For U13C C123A the value was 1.42; for U14C A30U, 1.11; for U14C A30G, 1.08.
As for U13A U112C, the self-cleavage was found to be 0.9.
Consider U13A U112A, for which the self-cleavage worked out at 0.45.
For U13C U100G the value was 1.63.
On to U14C C98U, for which the self-cleavage turned out to be 0.07.
For U14A A42C the value was 0.97; for U14A A42U, 0.47; for U14A A42G, 0.98.
For U13G U134A the value was 1.06; for U13G A142G, 1.41; for U14C C37U, 0.95.
Then U14C C37G, with 0.56; and U13G A30G, with 1.27; and U13G A30U, with 0.56.
U13G A57G: the self-cleavage came to 1.05.
Then U13G A57U, with 0.13; and U13C G88U, with 0.09; and U14C C99U, with 0.75.
Regarding U14A U119C, the self-cleavage is 0.85.
For U14C A42U the value was 1.02; for U14C C90A, 0.
Turning to U13G U23C, the self-cleavage came out at 0.76.
Take U13C G41U: the self-cleavage came to 1.14.
As to U13C C120G, the self-cleavage worked out at 1.48.
For U13C U39G the value was 1.54; for U13C U39A, 1.33.
Then U13A G34A, with 1.13; and U14C G88U, with 0.06.

These data come from the RNAGym collection of RNA variant scans (doi:10.7554/elife.90254).
